Test results published in patent US20100166772A1, “ANTIGEN-BINDING PROTEINS TARGETING S. AUREUS ORF0657n” (priority 2007, published 2010).

Tests used:
[1] = test system: ORF0657n; details: Luminex binding assay
Experimental: Construction of ORF0657n-bead—9.4×10^6 Radix maleimide microspheres (Georgetown, Tex.) were coupled to 750 μg ORF0657n-Se (ORF0657n containing carboxyl terminal cysteine group) at room temperature for 2 hours. Beads were washed 3 times with 1 ml PBS and then quenched with 1 M N-acetyl-L-cysteine (Sigma) for 2 hours at room temperature. Microspheres were washed 3× in PBS. Beads were enumerated and re-suspended at a final concentration of 500 microspheres/μl.
Detection of Competition between CAT ScFvs and CAT mAbs—CAT scFvs were individually competed against the CAT antibodies in the Luminex cLIA assay. ScFvs were diluted 1:4, 1:8, 1:16 and 1:32 in PBS-TBN (0.05% Tween 20, 1% BSA and 0.05% sodium azide) and incubated with 5000 ORF0657n-coupled microspheres in a Multiscreen filter plate (Millipore) for 1 hour, 15 minutes at room temperature. The beads were then washed 3× with PBS with 0.05% Tween 20 (PBS/Tween20). The individual antibodies were diluted in PBS-TBN to a final concentration of 2 μg/ml and added to separate plates. […] Microspheres were re-suspended in PBS/Tween20 and the median fluorescent signal was read using a Bio-Plex luminometer (BioRad). ScFvs were considered competitive if the median fluorescent signal was reduced by at least 30% over the signal detected for non-competitive scFvs for at least two dilutions.

[2] = test system: S. aureus; assay: Opsonophagocytosis activity (OPA) assay with HL60_DMF cells; assay type: cell-based; details: FIGS. 4 and 5
From the text: An opsonophagocytosis activity (OPA) assay was developed to evaluate an antibody's ability to opsonophagocytose. The assay measures the ability of antibodies to bind and fix complement (C′) to the bacterial surface, which results in an increase in the level of phagocytosis of these bacteria by granulocytic effecter cells.
ORF0657n is an iron regulated protein on the surface of S. aureus that appears to be involved in heme/Fe acquisition. […] For this assay the strain is iron starved to increase the expression of ORF0657n. This strain also lacks the ability to produce Protein A. Protein A can bind to the Fc portion of any IgG and the presence of this non-specifically bound antibody could interfere in the OPA reaction.
HL60 cells were exposed to dimethylformamide (DMF) for five to six days to induce the cells to differentiate towards a more granulocytic phenotype. Next, 2% C′-sufficient gnotobiotic pig serum was added to the antibody bound cells. Finally, the antibody and C′ exposed cells were then labeled with the fluorescent chemical 5′, 6′-FAM-SE.
After incubation of opsonized, fluorescently-labeled bacteria and unlabeled HL60_DMF cells, the level of phagocytosis was determined by measuring the percentage of HL60_DMF cells containing labeled bacteria by flow cytometry. […]

B1: mAb CS-D10: IgG1 antibody, light chain variable region SEQ ID NO: 5, heavy chain variable region SEQ ID NO: 6, lambda (antibody, V domains shown)
VH: QVQLQESGPGLVKPSETLSLTCTVSGGSIRSSSYYWGWFRQTPGKGLEWLGNVFFSGSAYYNPSLKSRVTISIDTSENQSSLKLTSVTAADTAVYYCARPQAYSHDSSGHSPFDLWGRGTMVTVSS
VL: QAVLTQPSSVSGAPGQRVTISCTGGSSNIGAGYDVHWYQQIPGTAPKLLIYGNSNRPSGVPDRFSGSKSGTSASLAITGLQAEDEADYYCQSYDSSLNGPVVFGGGTKVTVLG
modifications: mAb CS-C10 heavy chain variable region; mAb CS-C10 light chain variable region
mAbs compete for binding to the same epitope [1]: compete for binding to the same epitope
opsonic activity compared to isotype control [2]: higher opsonic activity compared to their IgG1 isotype control
